Laboratory results published in the Immune Epitope Database (IEDB).

Columns and labels:
HLA-A*26:01 = experiment: IEDB peptide-MHC binding, purified MHC/competitive/fluorescence; filed as Kd, often an IC50 or EC50 that approximates it; ≥ and ≤ were set here for values at or beyond the usual limits of such assays; settings: source organism: Homo sapiens
HLA-B*51:01 [1] = experiment: as above; settings: source organism: Homo sapiens
HLA-A*69:01 [2] = experiment: as above; settings: source organism: Homo sapiens
HLA-B*39:01 = experiment: as above; settings: source organism: Homo sapiens
HLA-B*15:01 [3] = experiment: as above; settings: source organism: Homo sapiens
HLA-A*02:01 [4] = experiment: as above; settings: source organism: Homo sapiens
HLA-B*18:01 [5] = experiment: as above; settings: source organism: Homo sapiens
HLA-B*27:03 = experiment: as above; settings: source organism: Homo sapiens
HLA-B*46:01 = experiment: as above; settings: source organism: Homo sapiens
HLA-B*15:17 [6] = experiment: as above; settings: source organism: Homo sapiens
HLA-B*57:01 [7] = experiment: as above; settings: source organism: Homo sapiens
HLA-A*01:01 = experiment: IEDB peptide-MHC binding, purified MHC/direct/fluorescence; filed as Kd, often an IC50 or EC50 that approximates it; ≥ and ≤ were set here for values at or beyond the usual limits of such assays
HLA-B*58:01 [8] = experiment: IEDB peptide-MHC binding, purified MHC/competitive/radioactivity; filed as Kd, often an IC50 or EC50 that approximates it; ≥ and ≤ were set here for values at or beyond the usual limits of such assays
HLA-B*57:01 [9] = experiment: as above
HLA-B*51:01 [10] = experiment: IEDB peptide-MHC binding, purified MHC/direct/fluorescence; filed as Kd, often an IC50 or EC50 that approximates it; ≥ and ≤ were set here for values at or beyond the usual limits of such assays
HLA-B*07:02 = experiment: as above
HLA-B*15:01 [11] = experiment: as above
HLA-A*03:01 [12] = experiment: IEDB peptide-MHC binding, purified MHC/competitive/fluorescence; ≥ and ≤ were set here for values at or beyond the usual limits of such assays
HLA-A*02:01 [13] = experiment: as above
HLA-A*11:01 [14] = experiment: as above
HLA-A*24:02 [15] = experiment: IEDB peptide-MHC binding, purified MHC/direct/fluorescence; filed as Kd, often an IC50 or EC50 that approximates it; ≥ and ≤ were set here for values at or beyond the usual limits of such assays; settings: source organism: Escherichia coli O157:H7
HLA-A*69:01 [16] = experiment: as above; settings: source organism: Escherichia coli O157:H7
HLA-A*03:01 [17] = experiment: as above; settings: source organism: Escherichia coli O157:H7
HLA-A*02:01 [18] = experiment: as above; settings: source organism: Escherichia coli O157:H7
HLA-B*18:01 [19] = experiment: as above; settings: source organism: Escherichia coli O157:H7
HLA-B*27:05 = experiment: as above; settings: source organism: Escherichia coli O157:H7
HLA-B*58:01 [20] = experiment: as above; settings: source organism: Escherichia coli O157:H7
HLA-A*11:01 [21] = experiment: as above; settings: source organism: Escherichia coli O157:H7
HLA-B*40:01 = experiment: as above; settings: source organism: Escherichia coli O157:H7
HLA-B*44:02 = experiment: as above; settings: source organism: Escherichia coli O157:H7
HLA-A*24:02 [22] = experiment: IEDB peptide-MHC binding, purified MHC/competitive/fluorescence; ≥ and ≤ were set here for values at or beyond the usual limits of such assays
HLA-B*15:17 [23] = experiment: IEDB peptide-MHC binding, purified MHC/direct/fluorescence; filed as Kd, often an IC50 or EC50 that approximates it; ≥ and ≤ were set here for values at or beyond the usual limits of such assays; settings: source organism: Yellow fever virus
HLA-B*57:01 [24] = experiment: as above; settings: source organism: Yellow fever virus
HLA-A*24:02 [25] = experiment: IEDB peptide-MHC binding, purified MHC/competitive/radioactivity; filed as Kd, often an IC50 or EC50 that approximates it; ≥ and ≤ were set here for values at or beyond the usual limits of such assays; settings: source organism: Dengue virus 3 Martinique/1243/1999
[26] = source organism: Dengue virus 2 Jamaica/1409/1983
[27] = source organism: Giardia lamblia ATCC 50803
[28] = source organism: Sudan ebolavirus
[29] = source organism: Bacillus anthracis
[30] = source organism: Escherichia coli O157:H7
[31] = source organism: Vaccinia virus Copenhagen
[32] = source organism: Dengue virus 3 Martinique/1243/1999
[33] = source organism: Zaire ebolavirus
[34] = source organism: Dengue virus 4 Philippines/H241/1956
[35] = source organism: Lassa virus Josiah

Which results are given for RTDNGGWAH?
Kd (HLA-A*26:01): ≥ 20 µM; Kd (HLA-B*51:01 [1]): ≥ 20 µM; Kd (HLA-A*69:01 [2]): ≥ 20 µM; Kd (HLA-B*39:01): ≥ 20 µM; Kd (HLA-B*15:01 [3]): ≥ 20 µM; Kd (HLA-A*02:01 [4]): ≥ 20 µM; Kd (HLA-B*18:01 [5]): ≥ 20 µM; Kd (HLA-B*27:03): ≥ 20 µM; Kd (HLA-B*46:01): ≥ 20 µM; Kd (HLA-B*15:17 [6]): ≥ 20 µM; Kd (HLA-B*57:01 [7]): ≥ 20 µM; Kd (HLA-A*01:01; source organism: Homo sapiens): 0.0631 µM

For FGSLGGVFTS, which Kd (HLA-B*58:01 [8]; [26]) is on record?
The Kd was 5.33 µM.

What about the Kd (HLA-B*57:01 [9]; [26]) of the same sequence?
The Kd was 2.18 µM.

Which Kd (HLA-B*51:01 [10]; [27]) does the source give for KLRSNALSL here?
Its Kd is ≥ 20 µM.

What about the Kd (HLA-B*07:02; [27]) of the same sequence?
The Kd was 0.008 µM.

What about the Kd (HLA-B*15:01 [11]; [27]) of the same sequence?
Its Kd is 0.025 µM.

Which IC50 (HLA-A*03:01 [12]; [28]) does the source give for GILGSLGLR here?
The IC50 was 15.2 µM.

What about the IC50 (HLA-A*02:01 [13]; [28]) of the same sequence?
The IC50 was 3.62 µM.

What about the IC50 (HLA-A*11:01 [14]; [28]) of the same sequence?
The IC50 was 3.84 µM.

Which Kd (HLA-B*51:01 [10]; [29]) does the source give for RPQHVKKSA here?
The Kd was ≥ 20 µM.

And the Kd (HLA-B*07:02; [29])?
Its Kd is 0.0085 µM.

And the Kd (HLA-B*15:01 [11]; source organism: Bacillus cereus NVH0597-99)?
The Kd was ≥ 20 µM.

KPKLKVATL was tested. Which Kd (HLA-A*01:01; [30]) did it give?
The Kd was ≥ 20 µM.

What about the Kd (HLA-A*24:02 [15]) of the same sequence?
The Kd was ≥ 20 µM.

What about the Kd (HLA-B*07:02; [30]) of the same sequence?
Its Kd is 0.0674 µM.

And the Kd (HLA-A*69:01 [16])?
Its Kd is ≥ 20 µM.

What about the Kd (HLA-A*03:01 [17]) of the same sequence?
Its Kd is ≥ 20 µM.

What about the Kd (HLA-B*15:01 [11]; [30]) of the same sequence?
Its Kd is ≥ 20 µM.

What about the Kd (HLA-A*02:01 [18]) of the same sequence?
Its Kd is ≥ 20 µM.

What about the Kd (HLA-B*18:01 [19]) of the same sequence?
Its Kd is ≥ 20 µM.

And the Kd (HLA-B*27:05)?
The Kd was ≥ 20 µM.

And the Kd (HLA-B*58:01 [20])?
The Kd was ≥ 20 µM.

What about the Kd (HLA-A*11:01 [21]) of the same sequence?
The Kd was ≥ 20 µM.

What about the Kd (HLA-B*40:01) of the same sequence?
The Kd was ≥ 20 µM.

And the Kd (HLA-B*44:02)?
Its Kd is ≥ 20 µM.

Which IC50 (HLA-A*24:02 [22]; [31]) does the source give for IITPIVFYR here?
The IC50 was 20.3 µM.

And the IC50 (HLA-A*03:01 [12]; [31])?
Its IC50 is 1.49 µM.

What about the IC50 (HLA-A*02:01 [13]; [31]) of the same sequence?
The IC50 was ≥ 132 µM.

And the IC50 (HLA-A*11:01 [14]; [31])?
The IC50 was 0.263 µM.

How did the Kd (HLA-B*58:01 [8]; [32]) turn out when KAKGSRAIW was run?
Its Kd is 0.279 µM.

And the Kd (HLA-B*57:01 [9]; [32])?
Its Kd is 0.0101 µM.

How did the IC50 (HLA-A*03:01 [12]; [28]) turn out when PPDGVRGFP was run?
Its IC50 is 67.1 µM.

What about the IC50 (HLA-A*11:01 [14]; [28]) of the same sequence?
Its IC50 is 63.2 µM.

What does the source list for KAIDFLLQR?
IC50 (HLA-A*24:02 [22]; [33]): ≥ 161 µM; IC50 (HLA-A*03:01 [12]; [33]): 28.8 µM; IC50 (HLA-A*02:01 [13]; [33]): 9.59 µM; IC50 (HLA-A*11:01 [14]; [33]): 0.693 µM

What does the source list for ESWIVDRQW?
Kd (HLA-B*15:17 [23]): 0.135 µM; Kd (HLA-B*57:01 [24]): 0.0195 µM

What does the source list for ESSSNPTIEE?
Kd (HLA-B*58:01 [8]; [34]): 9.49 µM; Kd (HLA-B*57:01 [9]; [34]): 2.32 µM

How did the IC50 (HLA-A*24:02 [22]; [33]) turn out when GLITGGRRT was run?
The IC50 was 19 µM.

And the IC50 (HLA-A*03:01 [12]; [33])?
The IC50 was ≥ 141 µM.

What about the IC50 (HLA-A*02:01 [13]; [33]) of the same sequence?
Its IC50 is 14.7 µM.

What about the IC50 (HLA-A*11:01 [14]; [33]) of the same sequence?
The IC50 was ≥ 99.4 µM.

LPTKLRPSA was tested. Which Kd (HLA-B*51:01 [10]; [35]) did it give?
Its Kd is ≥ 20 µM.

What about the Kd (HLA-B*07:02; [35]) of the same sequence?
Its Kd is 0.103 µM.

How did the Kd (HLA-A*24:02 [25]) turn out when WMAEIPLQW was run?
Its Kd is 0.174 µM.

What about the Kd (HLA-B*58:01 [8]; [32]) of the same sequence?
Its Kd is 0.0138 µM.
